According to publication PMC4496704:

What was measured:
[1] = biological target: Hsp-N (ATPase domain of mouse Hsp70; lacks the peptide-binding domain) (mouse); assay: cross-linking; without sulfatide (with or without lactosylceramide); 0.1 μM protein in PBS, 0.1% glutaraldehyde 10 min 30 °C, SDS-PAGE and Western blot
[2] = biological target: Recombinant mouse Hsp70 (70-kDa heat shock protein), wild type (mouse) (UniProt Q61696); assay: as above

Row | Substance | stoichiometry N [1] | stoichiometry N [2]
1 | Hsp-N (ATPase domain of mouse Hsp70; lacks the peptide-binding domain) (domain or fragment) | 2 | 
2 | Recombinant mouse Hsp70 (70-kDa heat shock protein), wild type (from UniProt Q61696 1-641) (natural protein) |  | 2
